Reference: patent US20260209789A1, “TRIGGER-INDUCIBLE MRNA CIRCULARIZATION” (WESTLAKE UNIVERSITY, priority 2022, published 2026)

Tested on: N2A, Hepa1-6 and B16-F10 cells
Test: AFP promoter-driven NanoLuc reporter and AFP qRT-PCR
Assay type: cell-based, murine
Settings: AFP-deficient cell lines, 48 h
Experimental: (A) Quantification of AFP-levels using (left panel) TSP-driven reporter gene expression and (right panel) qRT-PCR. (left panel) N2A, Hepa1-6 and B16-F10 cells were co-transfected with a PMusAFP-driven NanoLuc expression vector (pSLM54) and a constitutive FLuc expression vector (pYW99). Luciferase levels were quantified at 48 h after transfection. Data presented are mean±SD of relative luciferase activity (NanoLuc/FLuc) for n=3 individual experiments. (right panel) Relative AFP expression levels in N2A, Hepa1-6 and B16-F10 cells were profiled by qRT-PCR using murine AFP-specific primers listed in Table S1 and normalized to the gene encoding murine ribosomal protein (Rplp0).
Reverse transcription-polymerase chain reaction (RT-PCR). For quantitative analysis, PCR reaction was carried out with an initial step of 95° C. for 30 s followed by 40 cycles of 95° C. for 10 s and 60° C. for 30 s on the Applied Biosystems QuantStudio 1 Real-Time PCR System (ThermoFisher Scientific) using the ChamQ Universal SYBR qPCR Master Mix (Vazyme Biotech; cat. no. Q711-02) and the primers listed in Table S1. The relative cycle threshold (CT) was determined and normalized against the expression level of endogenous human glyceraldehyde 3-phosphate dehydrogenase (GAPDH) or murine ribosomal protein (Rplp0) genes. […]

B1: PAFP: alpha-fetoprotein (AFP) promoter, model tissue-specific promoter (nucleic acid)
DNA: AGGGGAAATAATCTATTTGAACAGTTTAGATGGTGAAGAACATTTGCAGCATTTGCAAGATTTTTTTCCACTCTGAAGTGGTCTTTGTCCTTGAACATAGGATACAAGTGACCCCTGCTCTGTTAATTATTGGCAAATTGCCTAACTTCAACGTAAGGAAATAGAGTCATATGTTTGCTCACTGAAGGTTACTAGTTAACAGGCATCCCTTAAACAGGATATAAAAGGACTTCAGCAGGACTGCTCGAAACATCCCACTTCCAGCACTGCCTGCGGTGAAGGA
  promoter-driven reporter gene expression (NanoLuc/FLuc): non-specific PAFP-driven reporter gene expression
